Laboratory results from patent publication US20250197490A1 (HBM ALPHA THERAPEUTICS, published 2025).
Changes are numbered by the printed parent chain. Several values for one entry are separate records, joined by “and”; a condition that tells them apart may be missing. Identical values can stand only once.

T1: corticotropin-releasing hormone (CRH) peptide (human and mouse, UniProt P01143 145-185 (rat entry), not fully specified)
T1 peptide: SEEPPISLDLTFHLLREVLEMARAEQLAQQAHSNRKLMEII

B1: PR302341 (antibody, human IgG1, kappa, V domains shown)
VH: EVQLQQSGPELVKPGASVKMSCKASGYTFTDYFMKWVKQSHGESLEWIGVINPNNGDIFYNQKFKGKATLTVDKSSSTAFMQLNSLTSEDSAVYSCARGTDRALFAYWGQGTLVAVSA
VL: DVLMTQTPLSLPVSLGDQASISCRSGQSIVHSDGNTYLEWYLQRPGQSPRLLIYKVSNRFSGVPDRFSGSGSGTDFTLKISRVGAEDLGIYYCFQGSHIPWTFGGGTKLEVKR
B2: PR302341-14 (antibody, human IgG1, kappa, V domains shown)
VH: QVQLVQSGAEVKKPGASVKVSCKASGYTFTDYFMKWVRQAPGQGLEWMGVINPNNGDIFYNQKFKGRVTMTVDKSTSTAYMELSSLRSEDTAVYYCARGTDRALFAYWGQGTLVTVSS
VL: B1 VL
B3: PR302341-13 (antibody, human IgG1, kappa, V domains shown)
VH: B2 VH with V72R, K74T, A79V
VL: B1 VL
B4: PR302341-1 (antibody, human IgG1, kappa, V domains shown)
VH: B1 VH
VL: DVVMTQSPLSLPVTLGQPASISCRSGQSIVHSDGNTYLEWFQQRPGQSPRRLIYKVSNRFSGVPDRFSGSGSGTDFTLKISRVEAEDVGVYYCFQGSHIPWTFGGGTKVEIKR
B5: PR302341-5 (antibody, human IgG1, kappa, V domains shown)
VH: B1 VH
VL: B4 VL with V2I, S7T, P12S, L15P, F41Y, Q42L, R44K, R50Q, R51L
B6: PR302341-3 (antibody, human IgG1, kappa, V domains shown)
VH: B1 VH
VL: B4 VL with V2I, S7T, L11S, F41L, S48P, R51L, S72A
B7: PR302341-4 (antibody, human IgG1, kappa, V domains shown)
VH: B1 VH
VL: B4 VL with S7T, L11S, F41Y, S48P, R51L, S72A, V88L
B8: PR302341-8 (antibody, human IgG1, kappa, V domains shown)
VH: B2 VH
VL: B4 VL with F41Y, R51L, V88L
B9: PR302341-6 (antibody, human IgG1, kappa, V domains shown)
VH: B1 VH
VL: B4 VL with S7T, P12S, L15P, F41Y, Q42L, R44K, R50Q, R51L, V88L
B10: PR302341-2 (antibody, human IgG1, kappa, V domains shown)
VH: B1 VH
VL: B4 VL with F41Y, R51L, V88L
B11: PR302341-19 (antibody, human IgG1, kappa, V domains shown)
VH: B2 VH with V72R, K74T, A79V
VL: B4 VL with F41Y, R51L, V88L
B12: PR302341-7 (antibody, human IgG1, kappa, V domains shown)
VH: B2 VH
VL: B4 VL
B13: PR302341-10 (antibody, human IgG1, kappa, V domains shown)
VH: B2 VH
VL: B4 VL with S7T, L11S, F41Y, S48P, R51L, S72A, V88L
B14: PR302341-11 (antibody, human IgG1, kappa, V domains shown)
VH: B2 VH
VL: B4 VL with V2I, S7T, P12S, L15P, F41Y, Q42L, R44K, R50Q, R51L
B15: PR302341-9 (antibody, human IgG1, kappa, V domains shown)
VH: B2 VH
VL: B4 VL with V2I, S7T, L11S, F41L, S48P, R51L, S72A

Target: T1, corticotropin-releasing hormone (CRH) …
Assay: cell-based or functional assay

Row | Binder | hCRHR1-Luc 0.5 nM CRH IC50
1 | B1 | 139 pM and 231 pM
2 | B2 | 75 pM
3 | B3 | 124 pM
4 | B4 | 397 pM
5 | B5 | 730 pM
6 | B6 | 128 pM
7 | B7 | 107 pM
8 | B8 | 165 pM
9 | B9 | 363 pM
10 | B10 | 168 pM
11 | B11 | 121 pM
12 | B12 | 230 pM
13 | B13 | 110 pM
14 | B14 | 467 pM
15 | B15 | 234 pM
